Source: the nanobody polyreactivity screen of Harvey et al. (2022)

Experiment: yeast display, Sf9 membrane polyspecificity reagent, FACS + sequencing; frameworks hold sequencing errors
Method in brief: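 Synthetic nanobody libraries on Saccharomyces cerevisiae BJ5465 were galactose-induced for 36–48 hours, stained 1 hour at 4 °C with 10% biotinylated, detergent-solubilized Sf9 membrane reagent and enriched on streptavidin microbeads. FACS then separated cells into low and high (top ~1%) gates by anti-HA (expression) and streptavidin (reagent binding) fluorescence. Genes were colony-PCR amplified, MiSeq 2 × 250 sequenced and CDR-length filtered. A clone's polyreactivity label is that of its gate of origin.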

Sequence | polyreactivity (PSR sort gate)
QVQLVESGGGLVQAGGSLRLSCAASGTTYSINAMGWYRQATGKERELVAAISSGGSTYYADSVKGRFTISRDNAKYTVYLQMNSLIPEDTAVYYCAVDPSWTYWSTYRYDYWGQGTQVTVSS | low polyreactivity
QVQLVESGGGLVQAGGSLRLSCAASGVIFYVYAMGWYRQAPGKERELVAAISADGGITYYADSVKGRFTISRDNAKNTVYLQMNSLKPEDTAVYYCAADYYGSVQGGIQYGYYYWGQGTQVTVSS | low polyreactivity
QVQLVESGGGLVQAGGSLRLSCAASGVYAMGWYRQAPGKERELVAAISRRGGSTYYADSVKGRFTISRDNAKNTVYLQMNSLKPEDTAVYYCAAKRAGAEYDYWGQGTQVTVSS | high polyreactivity
QVQLVESGGGLVQAGGSLRLSCAASGYIFAGNAMGWYRQAPGKERELVAVITRGGRTYYADSVKGRFTISRDNAKNTVYLQMNSLKPEDTAVYYCAKLVSLAGRIYGYWGQGTQVTVSS | high polyreactivity
QVQLVESGGGLVQAGGSLRLSCAASGYIFAVYAMGWYIQAPGKEREFVAVITWRGGSTYYADSVKGRFTISRDNAKNTVYLQMNSLKPEDTAVYYCADDVYAQYDYWGQGTQVTVSS | high polyreactivity
QVQLVESGGGLVQAGGSLRLSCAASGYIFAWNAMGWYRQAPGKERQLVAAIRSSSGRTYYADSVKGRFTISRDNAKNTVYLLMNSLKPEDTAVYYCAASYAGGAVYYKYYSWGQGTQVTVSS | high polyreactivity
QVQLVESGGGLVQAGGSLRLSCAASGYIFDGNAMGWYRQAPGKERELVASISSGTSTYYADSVKGRFTISRDNAKNTVYLQMNSLKPEDTAVYYCAGDYKWSGFGYWGQGTQVTVSS | low polyreactivity
QVQLVESGGGLVQAGGSLRLSCAASGYIFDRYAMGWYRQAPGKERELVAAISGRGGSTYYADSVKGRFTISRDNAKNTVYLQKNSLKPEDTAFYYCARDVYVRNGQRARYDSWGQGTQVTVSS | high polyreactivity
QVQLVESGGGLVQAGGSLRLSCAASGYIFDVYAMGWYRQAPGKERELVAAISSSGGRTYYADSVKGRFTISRDTAKNTVYLQMNSLKPEDTAVYYCAAKTHSRTKVYTADYWGQGTQVTVSS | high polyreactivity
QVQLVESGGGLVQAGGSLRLSCAASGYIFERTAMGWYRQAHGKERELVAAITDDGDDTYYADSVKGRFTISRDNAKNTVYLQMNSLKPEDTAVFYCAKDLYYGDYYYWGQGTQVTVSS | low polyreactivity
QVQLVESGGGLVQAGGSLRLSCAASGYIFFGNAMGWYRQAPGKERDLVAAIRWRGTSTYYADSVKGRFTISRDNAKNTVTFLMNSLKPEDSAVYYCAADVVRSNFYGTFLYDYEYWGKGTQVTVSS | low polyreactivity
QVQLVESGGGLVQAGGSLRLSCAASGYIFGHYAMGWSRQAPGKERELVAGITWRGGSTYYADSVKGRFTISRDNAKNTVYLQLNSLKPEDTAVYYCNAQYTQRWPYGLYYEMDYWGQGTQVSVSS | low polyreactivity
QVQLVESGGGLVQAGGSLRLSCAASGYIFGHYTMGWYRPAPRKERELVAGITSGTRTYYADSVKGRFTISRDNAKNTVYLQMNSRKPDDTAVYYCAKRGPVRTQYTYYYWGQGTQVTVSS | high polyreactivity
QVQLVESGGGLVQAGGSLRLSCAASGYIFGIYAMGWYRQAPGKERELVAAISTSGGSKYYADSVKGRFTISRDTAKNTVYLQMNSLKPEDTAVYYCAASRPSPRPRYGYWGQGTQVTVSS | high polyreactivity
QVQLVESGGGLVQAGGSLRLSCAASGYIFGIYAMGWYRQAPGKERELVARINWSGGRTYYADSVKGRFTISRDNAKNTVYLQMNSLKTEDTAVYYCAARSSYRKMDYWGQGTQVTVSS | high polyreactivity
QVQLVESGGGLVQAGGSLRLSCAASGYIFGNYAMGWYRQAPGKERELVAAISKSGVTTYYADSVKGRFTISRDNAKNTVYLQMNSLKPEDTAVYYCIARSWRPINARYNEYDYWGQGTQVTVSS | low polyreactivity
QVQLVESGGGLVQAGGSLRLSCAASGYIFGPNAMGWYRQAPGKERELVAAISSRGDSTFYADSVKGRFTISRDNAKNTDYLQMNSLKPEDTAVYYCAAEEITQFYVGSYLDDYWGQGTQVTVSS | low polyreactivity
QVQLVESGGGLVQAGGSLRLSCAASGYIFGQYAMGWYRQAPGKERELVAAIRRSGGRTYYADSVKGRFTISRDNAKNTVYLQMNSLKPEDTAVYYCNKGPPQTSWRTTLFDYWGQGTQVTVSS | high polyreactivity
QVQLVESGGGLVQAGGSLRLSCAASGYIFGSYVMGWYRQAPGKERELVAAISRRGGSTYYADSVKGRFTISRDNAKNTVNLQMNSLKPEYTAVYYFSADYGQYAKYDYWGQGTQVTVSS | high polyreactivity
QVQLVESGGGLVQAGGSLRLSCAASGYIFGVYAMGWYRQAPGKERELVAAISYGVGSTYYADSVKGRFTISRDNAKNTVYLQMNSLKPEDNAVYYCAAEDTQVRWSPVRPLEDYWGQGTQVTVSS | low polyreactivity
QVQLVESGGGLVQAGGSLRLSCAASGYIFGWYTMGWYRQAPGKERELVAAISGGGRTYYADSVKGRFTISRDNAKNTVYLQMNSLKPEDTAVYYCAARVAQVAYPDGYWGQGTQVTVSS | high polyreactivity

Sequence | polyreactivity (PSR sort gate)
QVQLVESGGGLVQAGGSLRLSCAASGYIFGYNAMGWYRQAPGKERELVATINSSDSTNYADSVKGRFTISRDNAKNTVYLQMNSLKPEDTAVYYCNKDHVRRSYPYDYWGQGTQVTVSS | low polyreactivity
QVQLVESGGGLVQAGGSLRLSCAASGYIFGYYAMGWYRQAPGKERELVAAIRSGGNTYYADSVKGRFTISRDNAKNTVYLQMNSLKPEDTAVYYCAKRYGRFSDYWGQGTQVTVSS | high polyreactivity
QVQLVESGGGLVQAGGSLRLSCAASGYIFGYYVMGWYRQARGKERELVAAISDSDITYYADSVKGRFTISRDNAKNTVSLQMNSLKPEDTAVYYCNADFGYWWDGRRYDYWGQGTQVTVSS | low polyreactivity
QVQLVESGGGLVQAGGSLRLSCAASGYIFHYNAMGWYRQAPGKEREFVAAISQGGGSTYYADSVKGRFTISRDNAKNTVYLQMNSLKPEDTAVYYCAADYRSGYREMDYWGQGTQVTVSS | low polyreactivity
QVQLVESGGGLVQAGGSLRLSCAASGYIFIGYAMGWYRQAPGKERELVATITSGGSTNYADSVKGRFTISRDNAKNTVYLQLHSLNPEDTAVDYCAAGRGRYFYSWRYLYAIFDYWGQGTQVTVSS | low polyreactivity
QVQLVESGGGLVQAGGSLRLSCAASGYIFINNAMGWYRQAPGKERELVAAISFNSGSTYYADSVKGRFTISRDNAKNTVYLQMNSLKPEDTAVYYCAADYEGWGYDYRGDYWGQGTQVTVSS | low polyreactivity
QVQLVESGGGLVQAGGSLRLSCAASGYIFIVNAMGWYRQAPGKERELVAAINSSGGNTYYADSVKGRFTISRDNAKNTVYLLMNSLKPEDTAVYYCAADQAKDISVEYDYWGQGTQVTVSS | low polyreactivity
QVQLVESGGGLVQAGGSLRLSCAASGYIFKYNTMGWYRQAPGKERELVASITWSGVRTYYADSVKGRFTISRDNAKNTVYLQMNSLKPEDTAVYYCNAAYRRSWDSDDYWGQGTQVTVSS | low polyreactivity
QVQLVESGGGLVQAGGSLRLSCAASGYIFKYYAMGWYRQAPGKERELVATINYSGGGTYYADSVKGRFTISRDNAKNTVYLQMNSLKPEDTAVYYCAAEHFFWGYDYWGQGTQVTVSS | high polyreactivity
QVQLVESGGGLVQAGGSLRLSCAASGYIFLAYAMGWYRQAPGKERELVADNTYADSVKGRFTISRDNAKNTVYLQMNSLKPEDPAVYYCNADEVYDEYSYDYWGQGTQVTVSS | low polyreactivity
QVQLVESGGGLVQAGGSLRLSCAASGYIFLRNAMGWYRQAPGKERELVAAIRRTGGSTYYADSVKGRFTISRDNAKHTVYLQMNSLKPEDTAVYYCAKRSYTGYESWGQGTQVTVSS | low polyreactivity
QVQLVESGGGLVQAGGSLRLSCAASGYIFLVYAMGWYRQAPGKERELVAAIDWSDTHTYYADSVKGRFTISRDNAKNTVYLHMNSLKPEDSAVYYCNADDYQYKTWYHLDYWGQGTQVTVSS | low polyreactivity
QVQLVESGGGLVQAGGSLRLSCAASGYIFLYNAMGWYRQAPGKERELVAAIRAIGGRTYYADSVKGRFTISRDNAKNTVYLQMNSLKPEDTAVYYCNARGQRRRSTGLRYIYDYWGQGTQVTVSS | high polyreactivity
QVQLVESGGGLVQAGGSLRLSCAASGYIFLYYTMGWYRQAPGKERELVAAITIGGGTYYADSVKGRFTISRDNAKNTVYLQMNSLKPEDTAVYYCNADYASYYRYSRPLEMNYWGQGTQVTVSS | low polyreactivity
QVQLVESGGGLVQAGGSLRLSCAASGYIFNVYAMGWYRQAPGKESELVAAISTSGGSTYYADSVKGRFSISRDNAKNTVYLQMNSLKPEDTAVYYCAAKSTLSRSHKSDYWGQGTQVTVSS | high polyreactivity
QVQLVESGGGLVQAGGSLRLSCAASGYIFNYYAMGWYRQAPGKERELVAAITSGDSTYADSVKGRFTISRDNAKNTVYLQMNSLKPEDTAVYYCAAEISILPFVTPDTIYGYWGQGTQVTVSS | low polyreactivity
QVQLVESGGGLVQAGGSLRLSCAASGYIFNYYGMGWYRQAPGKDRELVATISRGASTNYADSVKGRFTISRDNARNTVYFQMNTLKPEDTAVYYCAYWGQRTQVTVSS | low polyreactivity
QVQLVESGGGLVQAGGSLRLSCAASGYIFPFYAMGWYRQAPGKQRELVAAITESGGSTYYADSVKGRFTISRDNAKNNVYLQMNSLKPEDTAVYYCAKEVVKHPRGKLDYWGQGTQVTLSS | low polyreactivity
QVQLVESGGGLVQAGGSLRLSCAASGYIFPRYAMGWYRQAPGKERELVAAISYSGGSTYYADSVKGRFTISRDYAKNTVYLQMNSLKPEDTAVYYCNAYFLSQYQSAYRDDYWGQGTQVTVSS | high polyreactivity
QVQLVESGGGLVQAGGSLRLSCAASGYIFPYNAMGWYRQAPGKERELVATITWTGGSTYYADSVKGRFTISRDNAKNSVYLQMNSLKPEDTAVYYCAADLSIRYDHEYGYWGKGTQVTVSS | low polyreactivity
